Laboratory results as given in patent publication US20210032294A1, “MODIFIED PlySs2 LYSINS AND USES THEREOF” (CONTRAFECT CORPORATION, priority 2018, published 2021).

Key:
Format in all cases: cell-based, Staphylococcus aureus
[1] = test system: 1-day old biofilms formed by MRSA isolates; test: Minimum Biofilm Eradication Concentration (MBEC), MRSA biofilms; conditions: 24 hours treatment
Method: (§1) In some embodiments, the present modified lysin polypeptides are capable of reducing a biofilm. […] Biofilms are then washed and treated with e.g., a 2-fold dilution series of the lysin in TSBg at e.g., 37° C. for 24 hours. After treatment, wells are washed, air-dried at e.g., 37° C. and stained with e.g., 0.05% crystal violet for 10 minutes. After staining, the biofilms are destained in e.g., 33% acetic acid and the OD600 of e.g., extracted crystal violet is determined. The MBEC of each sample is the minimum lysin concentration required to remove >95% of the biofilm biomass assessed by crystal violet quantitation.
(§2) The anti-biofilm activity of pp296 was determined against 1-day old biofilms formed by 17 MSSA and 20 MRSA isolates in a 96-well broth microdilution format. The Minimum Biofilm Eradication Concentration (MBEC) values for pp296, compared to wild-type PlySs2 (CF-301), were determined by the following standard methodology. Bacteria were suspended in PBS (0.5 McFarland Units), diluted 1:100 in TSBg (66% tryptic soy broth, 0.2% glucose), added as 0.15 mL aliquots to 96-well polystyrene microplates, and incubated for 24 hours at 37° C. Biofilms were then washed and treated with a 2-fold dilution series of CF-301 or pp296 in TSBg at 37° C. for 24 hours. All samples were examined in triplicate. After treatment, wells were washed, air-dried at 37° C., and stained with 0.05% crystal violet for 10 min The loss of biofilm biomass was assessed visually, and crystal violet was quantitated by solubilization in 33% (vol/vol) acetic acid. The optical density of 600 nm (OD600) was determined using a SpectraMax M3 Multimode microplate reader. The MBEC of each sample was the minimum lysin concentration required to remove >95% of the biofilm biomass assessed by crystal violet quantitation.

[2] = test system: 5 MRSA strains and 5 MSSA strains; test: Checkerboard synergy assay with daptomycin or vancomycin; conditions: MRSA (JMI-41293) strain
MRSA isolates = test: MIC in CAMHB-HSD against MRSA isolates; conditions: 51 MRSA isolates
Method: In vitro activity of the modified lysin polypeptide pp296 was assessed against a range of 51 MSSA and 51 MRSA isolates in cation-adjusted Mueller Hinton broth supplemented with 25% horse serum and 0.5 mM DTT (CAMHB-HSD) and compared to WT GMP grade PlySs2 (CF-301). CF-301 and pp296 were each diluted into CAMHB-HSD. For each lysin, the dilution series is set up such that, after a two-fold dilution of each well of the plate, the final concentrations contained: 64, 32, 16, 8, 4, 2, 1, 0.5, 0.25, and 0.125 μg/mL. Each lysin was tested in duplicate against each strain. Preparations were incubated overnight. Growth was visualized as a growth button approximately 2 mm in diameter. The highest dilution that yielded ≥80% growth inhibition was called the minimum inhibitory concentration (MIC). The activity of pp296 was very similar, within one 2-fold dilution, to that of CF-301, as shown below in Table 7.

[3] = test system: 1-day old biofilms formed by MSSA isolates; test: Minimum Biofilm Eradication Concentration (MBEC), MSSA biofilms; conditions: 24 hours treatment
Method: as §1, §2

[4] = test system: 5 MRSA strains and 5 MSSA strains; test: Checkerboard synergy assay with daptomycin or vancomycin; conditions: for FIC index: with vancomycin
Method: Synergy studies with antibiotics suitable for treatment of Gram-positive bacteria, for example, daptomycin (DAP) and vancomycin (VAN), were performed using a checkerboard assay. Fractional inhibitory concentration (FIC) index values were determined for modified lysin polypeptide pp296 and antibiotic combinations against 5 methicillin-sensitive Staphylococcus aureus (MSSA) and 5 methicillin resistant Staphylococcus aureus (MRSA) isolates. An FIC index value of ≤0.5 may be interpreted as strong synergy between the two agents, while a value between 0.5 and 1 may still be considered a synergistic effect. Given that pp296 has four amino acid replacements in the catalytic domain, the ability of pp296 to synergize with antibiotics was unexpected. […] Qualitatively similar results may be anticipated upon performing similar assays using other de-immunized active variants, such as pp55, pp61, pp65, pp400, and pp619, in accordance with the present disclosure.
In another experiment, the ability of modified lysin polypeptide pp296 to synergize with daptomycin and vancomycin was assessed using a checkerboard analysis. FIC (fractional inhibitory concentration) index values were determined for pp296 and antibiotic combinations against 5 MSSA and 5 MRSA isolates. A total of 50 μl of Mueller-Hinton broth (BBL) was distributed into each well of microdilution plates. The first antibiotic of the combination was serially diluted along the ordinate, while the second drug was diluted along the abscissa. An inoculum equal to a 0.5 McFarland turbidity standard was prepared from each S. aureus isolate in MHB. Each microtiter well was inoculated with 100 μl of a bacterial inoculum of 5×10^5 CFU/ml, and the plates were incubated at 37° C. for 18 h under aerobic conditions. The resulting checkerboard contained each combination of two antibiotics, with wells that contained the highest concentration of each antibiotic at opposite corners. […] To quantify the interactions between the antibiotics being tested, the FIC index (the combination of antibiotics that produced the greatest change from the individual antibiotic's MIC) value was calculated for each strain and antibiotic combination as follows:
(A/MICA)+(B/MICB)=FICA+FICB=FIC index,
Checkerboards were generated using combinations of pp296 with either daptomycin or vancomycin against 5 MRSA strains (MW2, JMI-5675, JMI-4408, JMI-6181, and JMI-6182) and 5 MSSA strains (ATCC 29213, JMI-40979, JMI-43257, JMI-41293, and JMI-49315). Synergy was defined as inhibitory activity greater than what would be predicted by adding the two components together.

B1: pp296: Modified PlySs2 lysin, SEQ ID NO: 6: L92W, V104S, V128T, Y137S, Y164K, N184D, S198Q (protein)
chain: MTTVNEALNNVRAQVGSGVSVGNGECYALASWYERMISPDATVGLGAGVGWVSGAIGDTISAKNIGSSYNWQANGWTVSTSGPFKAGQIVTWGATPGNPYGHVSIVEAVDGDRLTILEQNYGGKRYPTRNYYSAASSRQQVVHYITPPGTVAQSAPNLAGSRSKRETGTMTVTVDALNVRRAPDTSGEIVAVYKRGEQFDYDTAIIDVNGYAWVSYIGGSGKRNYVATGATKDGKRFGNAWGTFK
For B1, the MBEC50 [1] was 0.031 µg/mL, the MBEC90 [1] was 0.06 µg/mL and the “MBEC Range” value [1] was 0.01 to 0.25 µg/mL. For the same molecule, the FIC index [2] was 0.75, the MIC50 (MRSA isolates) was 1 µg/mL and the MIC90 (MRSA isolates) was 1 µg/mL. The “MIC Range” value (MRSA isolates) was 0.25 to 2 µg/mL, the MBEC50 [3] was 0.063 µg/mL and the MBEC90 [3] was 0.25 µg/mL. The “MBEC Range” value [3] was 0.01 to 1 µg/mL, the FIC index values ([4]; with both daptomycin and vancomycin, predominantly) was about 0.5 and the FIC index ([4]; MRSA JMI-6182) was 0.375. The FIC index ([4]; MSSA ATCC 29213) was 0.625, the FIC index ([4]; MSSA strain JMI-40979) was 0.375 and the FIC index ([4]; against 6 of the 10 strains examined) was 0.5.
